{"source": "the DeepSol protein solubility set"}
{"assay": "soluble on expression in E. coli; label from the status in PepcDB or PDB records"}
{"sequence": "MPVSLLKAHEAEMWEVHFHPSNPDHLFTCSEDGSLWHWDASTNAPEKSSLFHQGGRSSTFLSHSLSNQAGVHQSLVSSWLSTDPAKDRIEITSLLPSRTLSVNSLDVLGPCLVCGTDAEAIYVTRQLFS", "soluble on expression in E. coli": "not soluble"}
{"sequence": "MPVVNIPIKILGQNQSHSRSNSSSSVDNDRNQPPQQPPQPQPQQQSQQQYQQAPNVNTNMHHSNGFSPNFPSRSPIPDFPSFSSGFPNDSEWSSNFPSFPNFPSGFSNGSSNFPDFPRFGRDGGLSPNPPMQGYRRSPTPTSTQSPTSTLRRNSQQNQAPPQYSQQQPQQAQQRQTTPPSTKASSRPPSRTREPKEPEVPERPAVIPLPYEKKEKPLEKKGSRDSGKGDENLEENIAKITIGKNNCELCPEQETDGDPSPLTSPITEGKPKRGKKLQRNQSVVDFNAKTIVTLDKIELQVEQLRKKAAELEMEKEQILRSLGEISVHNCMFKLEECDREEIEAITDRLTKRTKTVQVVVETPRNEEQKKALEDATLMIDEVGEMMHSNIEKAKLCLQTYMNACSYEETAGATCQNFLKIIIQCAADDQKRIKRRLENLMSQIENAERTKADLMDDQSE", "soluble on expression in E. coli": "not soluble"}
{"sequence": "MPWLLPREIAPLHQKALDRYLGSLTERLSDPNVDRNALVREELARLLYGRPYEELLEANPLAAMGLDPEGITFEAEYYAATDLEKFRRVKPLLWFWKVLDLTPLGQSVHSGVAIRRALAPFIFKRVGKNPKFFQNVEFSVGYNLELGDDVVVHRYVFLDDIGGIKIGDRTSLSDYVNVYSHTHHVLASPDVTLKETIIGSGVRITYHATVLAGVRIGDDAMVGTGAVVTKDIPPHAIALGIPARPVRYKVRHDCPYCRKGEPHPSDLVPKLPDRKGNPDYPDFLPPGFGTREAGS", "soluble on expression in E. coli": "soluble"}
{"sequence": "MPWQQQPIRYSADLEKPSPREQADIEKIMAKLLKNNERAYDKYKHGLRDAHAKSHAILRGELIVNEGLPPELAQGLFAEPRTYPVIARLSSTSGVRRSDKTRGVRGLGLKVLGVQGEKILPDDSSTNQDFVMVTHEDFLFADAHAYAGLGMITASLLARLSDQALWLGSGLLDLVSKAGIKLPDNLMVFVAPNRPILGLEFFSSAPFRHGDHVAKYRFAPASENVKALSGQLLPRNPAPEQHRDMIAEFFADQTAEFDFSAQLCTDPVAMPIEDAGKNWDKSISPYVSVAKIVFGPQNPYSALRRAYGDDVLAFNSWRGLAEHRPLGSINRLKKTVYESSADYRHRVNRIDRHEPVDISELPDLEHHHHHH", "soluble on expression in E. coli": "not soluble"}
{"sequence": "MPYLLYHHFDPTFDHQNLKPGLAVGKGKVDHYNLGYVQNVVKGQVLAEFIPIDDTDDPVIDRNHIFEEPLLPVGPNCKVDPDSPLRVVADANGYVFYNDGLITVKRMLNVRRDVDFHTGNIFFVSDIAVHGDVRAGFEVQGNNILVKGIIEGATVRARGSLAVEGGARGSGGSGLLDAGDTLRVPFAESMELRAHGNILIEKFCLHSLVYAATNLVVKNRLQGGTVHCNGLVYVETHLGNPKGTPTATRINMGYDPFTMRKLDRLEQHIRELQDSLTHIAGIAGNLGSDSAPGKRLDNARKKLNRLIRQREALWAALTEDEARAALCRVVVPGTVYPGVEISIGKAFFEVEHEMNNVSFSLADGSIVVTSPAIIKKKALEHHHHHH", "soluble on expression in E. coli": "not soluble"}
{"sequence": "MQANGVWSLQPLADMSAAEFRDWQVLLENRTGVVLNEQRRTFLQASLTARMRELGIGDYHSYYRQVTDGPRGAVEWATLLDRLTVQETRFFRHPPSFELLERYLGERLRREGMPRPWALWSVGCSSGEEPYSLAMCAAQVLRGQEREDFFGVTGTDISLHALQRARQANYPARKLEQLEAGLVERYCERQADGSFSVKTILTERVCCARLNVLDLAKAPWSGMDVIFCQNLLIYFRRWRRREILNRLAERLAPGGLLVIGVGEVVDWSHPELEPVADERVLAFTR", "soluble on expression in E. coli": "not soluble"}
{"sequence": "MQCELCGKEVKNIIKTRVEGVEMNVCEACAKFGMSPKGYSRKPRAVFKNETKQKQAKRPRKDMFDNLKTLVEDYGSLVKEAREKKNMTLEELSRAVGIKESLIHKIERNEIEPEEKYVKILEKALGISFYEEGDLNYETSNEDSEFTLGDFIKVKKRK", "soluble on expression in E. coli": "not soluble"}
{"sequence": "MQCFNTIFRLFTDMDEDNEIGLPQKGINQIIKEVVPEMRIANESRDMINACCVEFVKHIAREAQRIASQDQRKTIYHEHVQKALQNLGFTPDYLEAADSVLDACKVEAEKKLRRKNSRLEKCGIPEEKLYEMQQELIQKARQQEIEQQLAHQQAQAAAVAAANAQMFGGPSEGSLAPTDDDYDN", "soluble on expression in E. coli": "soluble"}
{"sequence": "MQDAACARRFVEAFGKRAYRRPLTPEEADAYAALFGQGSFREGVEATITHMLVSPNFLYRSELEHHHHHH", "soluble on expression in E. coli": "not soluble"}
{"sequence": "MQDWWEADNRLADWLSMILIQRTIEKNAKQALANLGPHLDLESLIGMDMATLEEYIYPAGFYKQKSIYIKALIKWFHGHGASLDKFQTYSTEDLRKELLGIKGVGEETADAMLLYIFERNVFIADLEHHHHHH", "soluble on expression in E. coli": "not soluble"}
{"sequence": "MQEGVKVVVDSRELRSEVVKRLKLLGVKLEVKTLDVGDYIISEDVAIERKSANDLIQSIIDGGLFDQVKRLKEAYSRPIMIVEGSLYGIRNVHPNAIRGAIAAVTVDFGVPIIFSSTPEETAQYIFLIAKREQEEREKPVRIR", "soluble on expression in E. coli": "soluble"}
{"sequence": "MQEHFHFTTDPAKLQKQYAAIFCFVSAQLSLIQMYLHRRNRHLVKQEDEVVMAVHLLGKLLGFSSERAWHRFVTGNLFTNGSFLERSRYNRRCRALGFAVKWIRHELAKRGQHHAYAVVDSLPLPLCHPARMQRVKRFRGIADMGYCASKKQWYYGFKLHLQVTHQGLAMGYVVTEASCHDVKAAETVMTQIPHPYNFGDKGYISRALREKLYEEHQAAFWTPSRHNQKHGPSKAWEEWIRKKRKVIETVFSILVDQYRITDIRANSIAGFEVALDGILVAYSLVTLGLVER", "soluble on expression in E. coli": "not soluble"}
{"sequence": "MQFDNIDSALMALKNGETIIVVDDENRENEGDLVAVTEWMNDNTINFMAKEARGLICAPVSKDIAQRLDLVQMVDDNSDIFGTQFTVSIDHVDTTTGISAYERTLTAKKLIDPSSEAKDFNRPGHLFPLVAQDKGVLARNGHTEAAVDLAKLTGAKPAGVICEIMNDDGTMAKGQDLQKFKEKHQLKMITIDDLIEYRKKLEPEIEFKAKVKMPTDFGTFDMYGFKATYTDEEIVVLTKGAIRQHENVRLHSACLTGDIFHSQRCDCGAQLESSMKYINEHGGMIIYLPQEGRGIGLLNKLRAYELIEQGYDTVTANLALGFDEDLRDYHIAAQILKYFNIEHINLLSNNPSKFEGLKQYGIDIAERIEVIVPETVHNHDYMETKKIKMGHLIMAGDPLEHHHHHH", "soluble on expression in E. coli": "not soluble"}
{"sequence": "MQFEHLVQVNDRTLVDLPVLDRLQLWEGLVCRAREPQYFVVGLERFEILVDDGDRLHRRLYLPGLVVEDEVVLKAPDSAHYSIKPSAEVAGGSLDMTIEEPEPGSLFVRFAYCTRYLQPLGDELPYDAFVKQAYIAMDVETIATIRDRFGASAASGS", "soluble on expression in E. coli": "soluble"}
{"sequence": "MQGFQPPAEKDAIEFAKKHRKEFEKVGEQFFKDNFGLKVKATNVVGKDDGIEVYVHCDDHGIVFNASLPLYKDAIHQKGSMRSNDNGDDMSMMVGTVLSGFEYRAQKEKYDNLYKFFKENEKKYQYTGFTKEAINKTQNVGYKNEYFYITYSSRSLKEYRKYYEPLIQKNDKEFKEGMERARKEVNYAADTDAVATLFSTKKNFTNDNTEDDVIELSDKLYNLKNKPDKSTITIQIGKPTINTKKAFYDDNRPIEYGVHSKGELEHHHHHH", "soluble on expression in E. coli": "soluble"}
{"sequence": "MQHEEGNRQRPQGELLLRTVAMPRDTNPNQDIFGGWIMSQMDLGGGILAAEIARGRIVTVAVQEMNFIRPVKVGNVVCCYGHCVRVGNTSLQLKVEVWVKTLMNDCVTEDRHLVTEAVFTYVAIDAEGNPRPIPKEGNPILAGLLPTPLEHHHHHH", "soluble on expression in E. coli": "soluble"}
{"sequence": "MQIDKLRGRELDQLFKAILSLRDLEECYRFFDDLCTVNEIQALAQRLEVARMLREGYTYHKIETETGASTATISRVKRCLNYGNDAYAMALDRIKEEQQQEEKEANEAVTD", "soluble on expression in E. coli": "not soluble"}
{"sequence": "MQIMGLLEDKALVEAALFVAGRPLSVKELSKALGIKSLDYLEKLIELIASEYAERKSAIEVTKVAGDKWVMQVKQEYSQRVIHLMPKPELTAGELKTLALIAFLQPVEQSKIVKLRGSQAYEHIKRLLEMGLIYAEPYERTKLLGTTEKFAELYGFPENDPNLIREKFREVIHAEYEDLVKKLEETEANRNNPTT", "soluble on expression in E. coli": "soluble"}
{"sequence": "MQITLARIDDRLIHGQVTTVWSKVANAQRIIICNDDVFNDEVRRTLLRQAAPPGMKVNVVSLEKAVAVYHNPQYQDETVFYLFTNPHDVLTMVRQGVQIATLNIGGMAWRPGKKQLTKAVSLDPQDIQAFRELDKLGVKLDLRVVASDPSVNILDKINETAFCE", "soluble on expression in E. coli": "soluble"}
{"sequence": "MQIVKKEKFILKEYTFENGRTIPVQMGYETYGTLNRERSNVILICHYFSATSHAAGKYTAHDEESGWWDGLIGPGKAIDTNQYFVICTDNLCNVQVKNPHVITTGPKSINPKTGDEYAMDFPVFTFLDVARMQCELIKDMGIARLHAVMGPSAGGMIAQQWAVHYPHMVERMIGVITNPQNPIITSVNVAQNAIEAIRLDPSWKGGKYGEEQPMKGLQLANRMMFMNAFDEHFYETTYPRNSIEVEPYEKVSSLTSFEKEINKLTYRSIELVDANSWMYTAKAVLLHDIAHGFSSLEEALSNVEANVLMIPCKQDLLQPSRYNYKMVDLLQKQGKYAEVYEIESINGHMAGVFDIHLFEKKVYEFLNRKVSSFV", "soluble on expression in E. coli": "not soluble"}
{"sequence": "MQIVQIEQAPKDYISDIKIIPSKSLLLITSWDGSLTVYKFDIQAKNVDLLQSLRYKHPLLCCNFIDNTDLQIYVGTVQGEILKVDLIGSPSFQALTNNEANLGICRICKYGDDKLIAASWDGLIEVIDPRNYGDGVIAVKNLNSNNTKVKNKIFTMDTNSSRLIVGMNNSQVQWFRLPLCEDDNGTIEESGLKYQIRDVALLPKEQEGYACSSIDGRVAVEFFDDQGDDYNSSKRFAFRCHRLNLKDTNLAYPVNSIEFSPRHKFLYTAGSDGIISCWNLQTRKKIKNFAKFNEDSVVKIACSDNILCLATSDDTFKTNAAIDQTIELNASSIYIIFDYENLEHHHHHH", "soluble on expression in E. coli": "soluble"}
{"sequence": "MQKINDAGELAKHSVVVTTFDTIKTLMNFQTLQKISFERIIIYDAYPIDNTDTQRYKALRQLDATYRWVLTGNLLQQNLANFLKLGEYGDDQLWDTQICPILEGKQCDEKTELSKKIENLLKSVELKFPLENYREMEVGADDSQ", "soluble on expression in E. coli": "not soluble"}
{"sequence": "MQKPVMNPKQRIFIRGLGLPSSYVEAQKKRDEENAKN", "soluble on expression in E. coli": "not soluble"}
{"sequence": "MQLNMMLENRDYTLVIDHSASMAKPDGNSENSKWQAIQESTFALARKCEEFDSDGITVYLFSKTFQRYDYVNSAKVKQLFAENSPSETTNLVGVLQDAINSYFQRKSLGKTKPAGEVILVITDGAPVDSQAVCEVIIKATHLVESANELRISIIQVGSDSHATKFLKALDDHLQSVGAKFDICDTITLDELEITNLSDVLMKAITDLEHHHHHH", "soluble on expression in E. coli": "soluble"}
{"sequence": "MQLRYAFRVYPDAGQRLALARAFGCARVVFNDVVRAREDARKAGRPFQTAAGLSRKLITEAKRTAERSWLGEVSAVVLQQSLRDAETAYRNFFASLKGTRKGPRVGPPRYKSRKDARQSIRFTANARWSITDSGRLNLPKIGAVKVKWSRTLPTIPTSVTVIKDAAGRYFASFVVDTDPAADRVRMPDADRTVGIDLGLTHFAVLSDGTKIGSPRFLRRAEKKLKKAQQELSRKQMGSKNRDRARLKVARAHAKVADARREFHHQLSTRLISENQGIAVEDLSVAGLARTRLAKSVHDAGWSSFVGMLKYKAERYGRTLVVIGRFEPTSQTCSTCGVKDGPKPLQVREWTCTACGTVHDRDHNAAINVKQAAGLAASACGAPVRPGAIPAQREETGSHGLPTEPRAALEHHHHHH", "soluble on expression in E. coli": "not soluble"}
